# Reference: publication PMC3675359, “GxcC connects Rap and Rac signaling during Dictyostelium development” (BMC Cell Biology, 2013)
# T1: NtermGxcC (aa 1-633), recombinant GST-ARM purified from E. coli (Dictyostelium discoideum, UniProt Q54P24 1-633)
# T1 construct: GxcC, Dictyostelium discoideum, UniProt Q54P24; aa 1-633 as printed, from pGEX4T3; the cloning paragraph says that the N-terminal fragment of base pairs 1-1911 (637 codons) was ligated into pGEX 4T3; also called ARM domain of GxcC; purified GxcC ARM domain; not shown: GST, N-terminal, kept
# T1 sequence (looked up): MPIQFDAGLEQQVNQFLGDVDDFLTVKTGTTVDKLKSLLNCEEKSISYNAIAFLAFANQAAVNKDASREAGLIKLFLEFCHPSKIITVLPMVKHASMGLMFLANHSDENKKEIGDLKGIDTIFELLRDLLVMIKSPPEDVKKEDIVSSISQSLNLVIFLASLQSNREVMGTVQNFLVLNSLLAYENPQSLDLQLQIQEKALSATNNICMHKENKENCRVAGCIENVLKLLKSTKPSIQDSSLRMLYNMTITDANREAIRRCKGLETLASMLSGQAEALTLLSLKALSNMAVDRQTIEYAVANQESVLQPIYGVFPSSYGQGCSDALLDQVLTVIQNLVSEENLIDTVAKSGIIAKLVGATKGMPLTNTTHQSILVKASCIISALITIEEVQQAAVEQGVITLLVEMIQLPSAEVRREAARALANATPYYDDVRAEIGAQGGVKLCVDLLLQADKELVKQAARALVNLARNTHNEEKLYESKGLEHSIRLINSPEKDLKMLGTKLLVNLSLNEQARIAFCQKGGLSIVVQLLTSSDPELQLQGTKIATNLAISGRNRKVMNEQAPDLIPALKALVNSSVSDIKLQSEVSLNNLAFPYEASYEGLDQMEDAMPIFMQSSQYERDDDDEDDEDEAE
# Biological target: T1, NtermGxcC (aa 1-633), recombinant …
# Assay: guanine nucleotide dissociation inhibition (GDI) assay; G-protein loaded with mGppNHp incubated with an excess of unlabelled nucleotide; decay of fluorescence (kobs) at varying concentrations of GST-ARM
# Conditions: both partners purified
binder,measurement,value
"RapA purified from E. coli (loaded with mGppNHp or mGDP) (natural protein, Dictyostelium discoideum, UniProt P18613 1-186, looked up, RapA, Dictyostelium discoideum; Loaded with the fluorescent nucleotide mGppNHp (or mGDP); It may be the GST-RapA of the screen with or without its GST; source: E. coli, purified) MPLREFKIVVLGSGGVGKSALTVQFVQGIFVEKYDPTIEDSYRKQVEVDSNQCMLEILDTAGTEQFTAMRDLYMKNGQGFVLVYSIISNSTFNELPDLREQILRVKDCEDVPMVLVGNKCDLHDQRVISTEQGEELARKFGDCYFLEASAKNKVNVEQIFYNLIRQINRKNPVGPPSKAKSKCALL",Kd,13.3 µM
